Here are results for 3 molecules from US20150259408A1 (PROTHENA BIOSCIENCES, published 2015).

Bounds are passed on as bounds.

Assay [1] addresses recombinant LG4-5 of LAMA4 coated on ELISA plates. As to the kind of experiment: cell-based or functional assay.
The target of assay [2] is laminin 411 (LAMA4 in complex with gamma1 and beta1 chains). Briefly: cell-based or functional assay.
Assay [3] concerns the target T1, human LAMA4 LG1-3 fragment displayed on 293 cells (pDisplay) (human, UniProt Q16363 830-1430, limits assumed).
T1 sequence: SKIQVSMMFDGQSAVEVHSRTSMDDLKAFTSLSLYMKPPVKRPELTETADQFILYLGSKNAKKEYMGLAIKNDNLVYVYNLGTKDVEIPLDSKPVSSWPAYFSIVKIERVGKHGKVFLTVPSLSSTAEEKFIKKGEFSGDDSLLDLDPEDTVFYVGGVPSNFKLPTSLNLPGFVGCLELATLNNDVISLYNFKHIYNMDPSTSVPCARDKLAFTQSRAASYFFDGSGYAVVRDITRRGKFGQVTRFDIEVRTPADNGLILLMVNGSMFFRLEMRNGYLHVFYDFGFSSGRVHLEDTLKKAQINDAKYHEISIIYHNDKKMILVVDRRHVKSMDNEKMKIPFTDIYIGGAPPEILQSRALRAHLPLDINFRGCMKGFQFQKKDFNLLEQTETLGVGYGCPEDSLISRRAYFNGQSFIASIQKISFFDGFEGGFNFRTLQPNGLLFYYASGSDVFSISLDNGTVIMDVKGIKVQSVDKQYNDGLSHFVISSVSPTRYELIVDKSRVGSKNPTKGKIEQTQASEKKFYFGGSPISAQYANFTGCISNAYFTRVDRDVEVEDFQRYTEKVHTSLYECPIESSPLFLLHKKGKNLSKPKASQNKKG
As to the kind of experiment: flow cytometry on 293 cells displaying LAMA4 fragments (pDisplay). The procedure:
Monoclonal antibodies against the LG4-5 modules of the G domain of LAMA4 were generated as described in Materials and Methods. The specific binding between the monoclonal antibodies and the LG4-5 modules of the G domain of LAMA4 was confirmed by assessing the monoclonal antibodies' ability to stain LAMA4-fragment-displaying human embryonic kidney 293 cells by flow cytometry. Fluorescent signal was assessed via flow cytometric analyses and plotted as mean fluorescence intensity (MFI) as shown in FIG. 1. A LG1-3-specific LAMA4 antibody was able to bind 293 cells displaying LG1-5 and LG1-3, but not LG4-5 of the LAMA4 protein. Conversely, clones 6C12, 13G10, and 15F7 were able to specifically bind 293 cells displaying LG1-5 and LG4-5, but not LG1-3.
Human LAMA4 G-domains 1-5 and variants were cloned into pDisplay expression construct (Life Technologies) and transiently transfected into 293 cells using standard procedures. Anti-LAMA4 antibodies were incubated with cells for 30 min at 4° C. and followed by anti-mouse-650 for 30 minutes at 4° C. Cells were analyzed for anti-laminin binding by flow cytometry using standard procedures.
For orientation: Flow cytometry measures light scatter and fluorescence of single cells or particles in a stream.

For assay [4], the target named is T2, recombinant human His-laminin-α4 (R&D Systems) (human, UniProt Q16363-2 826-1816, limits assumed).
T2 construct: range 826-end (only the start, Q826, is stated); Bought protein; also called Human LAMA4; human His-laminin-α4 fragment starting at Q826; not shown: 6x His tag
T2 sequence (looked up): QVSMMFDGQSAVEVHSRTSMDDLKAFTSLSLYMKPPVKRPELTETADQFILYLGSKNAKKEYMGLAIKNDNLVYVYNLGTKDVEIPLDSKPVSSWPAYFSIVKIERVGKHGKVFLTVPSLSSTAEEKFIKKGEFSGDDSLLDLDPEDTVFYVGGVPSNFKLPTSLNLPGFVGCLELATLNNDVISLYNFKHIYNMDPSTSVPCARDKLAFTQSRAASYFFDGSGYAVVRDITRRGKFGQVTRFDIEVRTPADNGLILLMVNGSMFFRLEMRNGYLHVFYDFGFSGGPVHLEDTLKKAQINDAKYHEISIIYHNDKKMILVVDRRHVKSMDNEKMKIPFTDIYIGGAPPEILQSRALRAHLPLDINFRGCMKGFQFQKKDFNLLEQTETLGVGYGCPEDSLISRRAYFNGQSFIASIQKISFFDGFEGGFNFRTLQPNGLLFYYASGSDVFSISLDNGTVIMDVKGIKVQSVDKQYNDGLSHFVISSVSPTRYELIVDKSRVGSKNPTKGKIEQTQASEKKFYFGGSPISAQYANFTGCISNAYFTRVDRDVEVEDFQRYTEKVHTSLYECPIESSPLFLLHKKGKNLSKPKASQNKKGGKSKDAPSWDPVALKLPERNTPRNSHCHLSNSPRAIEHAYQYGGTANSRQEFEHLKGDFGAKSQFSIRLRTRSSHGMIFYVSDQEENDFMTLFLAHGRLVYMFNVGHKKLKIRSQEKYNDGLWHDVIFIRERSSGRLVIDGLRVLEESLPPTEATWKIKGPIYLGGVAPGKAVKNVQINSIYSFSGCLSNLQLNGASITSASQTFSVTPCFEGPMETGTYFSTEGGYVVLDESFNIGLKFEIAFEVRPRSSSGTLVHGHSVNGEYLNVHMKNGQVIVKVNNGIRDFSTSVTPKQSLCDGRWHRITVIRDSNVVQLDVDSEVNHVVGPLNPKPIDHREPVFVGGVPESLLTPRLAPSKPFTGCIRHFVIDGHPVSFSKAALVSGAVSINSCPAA
Briefly: SPR (Biacore T200); Fab or captured-IgG format not given. A general note: Surface plasmon resonance follows binding to a sensor surface in real time, without labels.

Assay [5] has as its target T3, recombinant mouse His-laminin-α4 (R&D Systems) (mouse, UniProt P97927 826-1816, limits assumed).
T3 construct: range 826-end (only the start, Q826, is stated); Bought protein; also called Murine LAMA4; not shown: 6x His tag
T3 sequence (looked up): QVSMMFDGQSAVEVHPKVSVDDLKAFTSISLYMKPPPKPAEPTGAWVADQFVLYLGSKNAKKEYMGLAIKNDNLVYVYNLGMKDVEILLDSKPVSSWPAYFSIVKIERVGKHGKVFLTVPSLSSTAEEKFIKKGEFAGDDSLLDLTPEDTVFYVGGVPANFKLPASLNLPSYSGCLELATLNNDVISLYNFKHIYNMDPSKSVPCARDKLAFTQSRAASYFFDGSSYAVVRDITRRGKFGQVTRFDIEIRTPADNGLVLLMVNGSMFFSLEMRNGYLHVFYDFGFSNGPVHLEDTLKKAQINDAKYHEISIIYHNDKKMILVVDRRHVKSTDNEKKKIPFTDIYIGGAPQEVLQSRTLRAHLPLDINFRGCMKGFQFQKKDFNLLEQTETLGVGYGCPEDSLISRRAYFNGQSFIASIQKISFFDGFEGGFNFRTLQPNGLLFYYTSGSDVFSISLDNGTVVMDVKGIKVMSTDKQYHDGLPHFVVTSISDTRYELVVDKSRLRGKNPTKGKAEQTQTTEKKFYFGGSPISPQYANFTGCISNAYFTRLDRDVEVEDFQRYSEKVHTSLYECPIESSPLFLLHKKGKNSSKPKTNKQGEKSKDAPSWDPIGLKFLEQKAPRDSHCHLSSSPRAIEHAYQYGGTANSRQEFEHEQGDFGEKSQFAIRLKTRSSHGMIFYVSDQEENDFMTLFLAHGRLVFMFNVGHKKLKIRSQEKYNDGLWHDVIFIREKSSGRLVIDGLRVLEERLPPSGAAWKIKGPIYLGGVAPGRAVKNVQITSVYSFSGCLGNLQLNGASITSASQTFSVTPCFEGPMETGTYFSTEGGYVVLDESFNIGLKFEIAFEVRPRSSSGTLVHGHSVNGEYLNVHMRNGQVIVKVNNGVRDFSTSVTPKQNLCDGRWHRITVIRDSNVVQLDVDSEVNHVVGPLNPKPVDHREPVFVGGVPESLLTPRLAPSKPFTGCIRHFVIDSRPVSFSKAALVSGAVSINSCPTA
The description is as above.

B1: mouse monoclonal antibody 15F7 (antibody, V domains shown)
VH: QVQLQQSGTELARPGAAVKLSCKASGYTFTSYGLSWVKQRAGQGLEWIGEIFPRSGNTYYNEKFKGKATLTADKSSSTAYMELRSLTSEDSAVYFCARGVRSPGAMDYWGQGTSVTVSS
VL: DIQMTQSSSSFSVSLGDRVTITCKASEDIYNRLAWYQQKPGNAPRLLISGATSLETGVPSRFSGSGSGKDYTLSITSLQTEDVATYYCQQYWSIPYTFGGGTNLEIKR
notes: Mouse hybridoma antibody; Mouse IgG1 is used as its control; also called m15F7; LG4-5-specific antibody 15F7
In general, Kd refers to the constant that tells how readily two partners part at equilibrium. One may read the koff as a measure of how fast the partners let go of each other. In general, kon refers to the second-order rate constant of association. Consider B1, for which, in assay [1], the “inhibition of LAMA4-mediated WM-266-4 human melanoma cell adhesion (antibody at 20 ug/ml)” value (“inhibition … (antibody at 20 ug/ml)” below) is no less than 35%. Also, in assay [2], the “inhibition of laminin-411-induced pAkt activation (pAkt/Akt ratio by immunoblot, WM266.4 cells; 20 ug/ml 15F7, 10 ug/ml laminin 411)” value is roughly 50%. Moreover, in assay [3], the binding result is on record as “no binding”. Besides, in assay [4], the dissociation constant (Kd) was 0.684 nM, the koff is 0.000781 s⁻¹ and the on-rate constant (kon) turned out to be 1.14e+06 M⁻¹ s⁻¹. In assay [5], the Kd was 0.627 nM, the koff is 0.000658 s⁻¹ and the kon turned out to be 1.05e+06 M⁻¹ s⁻¹.

B2: mouse monoclonal antibody 13G10 (antibody, V domains shown)
VH: QVQLQQSGAELARPGASVKLSCKASGYTFTNYGISWVKQRTGQGLEWIGAIYPRSGNTYYNEKFKGKATLTADKSSSTAYMELRSLTSEDSAVYFCARERDYGSSYALDYWGQGTSVTVSS
VL: DIQMTQSSSSFSVSLGDRVTITCKASEDIYNRLAWYQQKPGNAPRLLISGATSLETGVPSRFTGSGSGKDYTLSITSLQTEDVATYYCQQYWSPPRTFGGGTKLEIKR
In the case of B2, in assay [1], the “inhibition … (antibody at 20 ug/ml)” value is no less than 35%. In addition, the binding result in assay [3] is “no binding”. In assay [4], the Kd is 24.4 nM, the koff was found to be 0.0074 s⁻¹ and the kon came to 302000 M⁻¹ s⁻¹. Besides, in assay [5], the Kd is 11.9 nM, the koff stood at 0.00449 s⁻¹ and the kon was 378000 M⁻¹ s⁻¹.

B3: mouse monoclonal antibody 6C12 (antibody, V domains shown)
VH: QVQLQQPGAELVKPGASVKLSCKASGYTFTTYWMHWVKQRPGQGPEWIGMIHPYSGAINYNEKFKSKATLTVDKSSSTAYMQLSSLTSEDSAVYYCVKQLRLLYYFDYWGQGTTLTVSS
VL: DIVMTQSPSSLTVTAGEKVTMSCKSRQSLLNSGNQKNYLTWYQQKPGQPPKVLIYWASTRESGVPDRFTGSGSGTDFTLTISSVQAEDLAVYYCQNDYSYPLTFGAGTKLELKR
With B3, the “inhibition … (antibody at 20 ug/ml)” value in assay [1] was no less than 35%. Also, the binding result in assay [3] is recorded as “no binding”. In assay [4], the Kd was found to be 3.11 nM, the koff came out at 0.00102 s⁻¹ and the kon was found to be 328000 M⁻¹ s⁻¹. Moreover, in assay [5], the Kd was found to be 2.38 nM, the koff is 0.00111 s⁻¹ and the kon is 469000 M⁻¹ s⁻¹.
